Assay results reported in the supplement of paper PMC7877785.
± gives the uncertainty stated by the source.

Experiment: self-splicing fitness, log relative to wild type (ln ratio); higher = more splicing; Tetrahymena group I intron in knt gene, E. coli kanamycin selection, DiMSum; sequences stand for … in CUCUCU…GGAGGGAAAAGUUAUCAGGCAUGCACCUGGUAGCUAGUCUUUAAACCAAUAGAUUGCAUCGGUUUAAAAGGCAAGACCGUCAAAUUGCGGGAAAGGGGUCAACAGCCGUUCAGUACCAAGUCUCAGGGGAAACUUUGAGAUGGCCUUGCAAAGGGUAUGGUAAUAAGCUGACGGACAUGGUCCUAACCACGCAGCCAAGUCCUAAGUCAACAGAUCUUCUGUUGAUAUGGAUGCAGUUCACAGACUAAAUGUCGGUCGGGGAAGAUGUAUUCUUCUCAUAAGAUAUAGUCGGACCUCUCCUUAAUGGGAGCUAGCGGAUGAAGUGAUGCAACACUGGAGCCGCUGGGAACUAAUUUGUAUGCGAAAGUAUAUUGAUUAGUUUUGGAGUACUCGUGGUCG
Summary of the method: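 Pooled colonies went to amplicon sequencing on an Illumina HiSeq 2500 after six replicate transformations. The plates were LB agar with 100 μg/mL carbenicillin, 50 μM IPTG and 0.2% rhamnose, with or without 25 μg/mL kanamycin, incubated overnight at 37°C or 30°C. The E. coli BL21(DE3) library had all eight P1ex-region intron nucleotides randomised, the intron placed in the knt kanamycin-resistance gene on pET-22b(+). DiMSum fitness is the error-weighted combination of replicate fold changes, kanamycin against none, normalised to wild type.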

Row | Sequence | self-splicing fitness (ln) (30 °C) | self-splicing fitness (ln) (37 °C)
1 | ACCGAGCAAUAUUACGUAGG | -3.76 ± 0.2 | -2.79 ± 0.24
2 | AUGUAGCAAUAUUACGAGUG | -2.52 ± 0.12 | -2.72 ± 0.18
3 | UCCAAGCAAUAUUACGUAGU | -1.27 ± 0.068 | -0.483 ± 0.091
4 | GAUCAGCAAUAUUACGUACC | -0.223 ± 0.073 | -0.245 ± 0.099
5 | UUCCAGCAAUAUUACGCAUC | -3.6 ± 0.23 | -2.2 ± 0.17
6 | GACCAGCAAUAUUACGUCAU | -1.66 ± 0.058 | -0.747 ± 0.062
7 | AUAUAGCAAUAUUACGCACC | -0.862 ± 0.2 | -0.94 ± 0.18
8 | ACCUAGCAAUAUUACGAUAG | -3.99 ± 0.35 | -2.49 ± 0.41
9 | GGGUAGCAAUAUUACGAAGU | -1.74 ± 0.23 | -1.57 ± 0.24
10 | CGGAAGCAAUAUUACGACUG | -2.02 ± 0.28 | -1.12 ± 0.23
11 | UCACAGCAAUAUUACGAGGC | -2.83 ± 0.14 | -2.62 ± 0.16
12 | UUCUAGCAAUAUUACGUGGU | -4.03 ± 0.34 | -0.962 ± 0.18
13 | CGUAAGCAAUAUUACGGCCG | -0.668 ± 0.11 | 0.0976 ± 0.13
14 | GGCGAGCAAUAUUACGGGGU | -3.47 ± 0.25 | –
15 | GCAUAGCAAUAUUACGCGGA | – | -1.69 ± 0.31
16 | UGUGAGCAAUAUUACGUCUG | -0.95 ± 0.15 | -0.000357 ± 0.17
17 | GCCCAGCAAUAUUACGUAUU | -2.02 ± 0.066 | -0.786 ± 0.074
18 | AGCGAGCAAUAUUACGACGC | -1.92 ± 0.25 | 0.245 ± 0.2
19 | GGGCAGCAAUAUUACGGAUU | -0.98 ± 0.12 | -0.0797 ± 0.1

Row | Sequence | self-splicing fitness (ln) (30 °C) | self-splicing fitness (ln) (37 °C)
20 | UGAAAGCAAUAUUACGCUAU | -3.32 ± 0.23 | -1.54 ± 0.17
21 | GAUAAGCAAUAUUACGGGGU | -3.97 ± 0.25 | -1.74 ± 0.16
22 | AUGCAGCAAUAUUACGCGUA | -2.09 ± 0.18 | -1.71 ± 0.2
23 | CUGGAGCAAUAUUACGUGUC | -3.17 ± 0.2 | -3.18 ± 0.27
24 | AACUAGCAAUAUUACGGACU | -1.36 ± 0.24 | 0.037 ± 0.28
25 | UAGCAGCAAUAUUACGUACA | -1.16 ± 0.091 | -0.0473 ± 0.1
26 | UAGAAGCAAUAUUACGAGAA | -1.7 ± 0.44 | -1.55 ± 0.35
27 | UCUGAGCAAUAUUACGCUCA | -2.29 ± 0.24 | -2.09 ± 0.28
28 | AUGAAGCAAUAUUACGCGUG | -0.281 ± 0.066 | -0.171 ± 0.099
29 | GUCCAGCAAUAUUACGAACG | -1.52 ± 0.13 | -0.855 ± 0.16
30 | UGGUAGCAAUAUUACGUACA | -0.28 ± 0.087 | 0.35 ± 0.12
31 | AGGAAGCAAUAUUACGAUGG | -2.53 ± 0.16 | -1.88 ± 0.21
32 | ACAGAGCAAUAUUACGCAGC | – | -2.25 ± 0.33
33 | AGUCAGCAAUAUUACGUACC | -0.711 ± 0.15 | 0.605 ± 0.21
34 | ACGAAGCAAUAUUACGGCGC | -0.589 ± 0.086 | -0.278 ± 0.12
35 | ACACAGCAAUAUUACGGGGG | -2.9 ± 0.14 | -2.45 ± 0.15
36 | UUCGAGCAAUAUUACGGCGG | -1.3 ± 0.095 | -0.639 ± 0.12
37 | UACGAGCAAUAUUACGCCGG | -2.84 ± 0.29 | 0.206 ± 0.22
38 | GGACAGCAAUAUUACGGAGU | -1.61 ± 0.12 | -1.12 ± 0.11
